Test results from US20210155689A1 (SHANGHAI PHARMAEXPLORER, published 2021).
Where a chain is given by its changes, count along the chain named.

T1: human LAG-3 on cells (HEK293-hLAG-3 stable cell line) (human, UniProt P18627 23-525)
T1 sequence: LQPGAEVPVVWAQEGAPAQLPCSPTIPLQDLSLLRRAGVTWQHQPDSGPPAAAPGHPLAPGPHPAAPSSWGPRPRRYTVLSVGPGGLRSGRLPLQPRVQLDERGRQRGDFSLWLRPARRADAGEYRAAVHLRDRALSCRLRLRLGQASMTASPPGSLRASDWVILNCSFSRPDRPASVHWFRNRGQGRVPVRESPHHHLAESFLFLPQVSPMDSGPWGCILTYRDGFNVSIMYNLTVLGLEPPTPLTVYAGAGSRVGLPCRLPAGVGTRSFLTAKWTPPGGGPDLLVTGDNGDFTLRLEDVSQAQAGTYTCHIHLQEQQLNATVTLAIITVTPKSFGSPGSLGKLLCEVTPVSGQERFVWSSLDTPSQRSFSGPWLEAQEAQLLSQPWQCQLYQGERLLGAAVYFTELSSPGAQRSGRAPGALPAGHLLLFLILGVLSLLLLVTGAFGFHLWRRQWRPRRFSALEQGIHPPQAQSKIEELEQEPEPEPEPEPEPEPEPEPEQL

T2: human LAG-3 ECD (antigen protein of the affinity test) (human, UniProt P18627 23-450)
T2 sequence: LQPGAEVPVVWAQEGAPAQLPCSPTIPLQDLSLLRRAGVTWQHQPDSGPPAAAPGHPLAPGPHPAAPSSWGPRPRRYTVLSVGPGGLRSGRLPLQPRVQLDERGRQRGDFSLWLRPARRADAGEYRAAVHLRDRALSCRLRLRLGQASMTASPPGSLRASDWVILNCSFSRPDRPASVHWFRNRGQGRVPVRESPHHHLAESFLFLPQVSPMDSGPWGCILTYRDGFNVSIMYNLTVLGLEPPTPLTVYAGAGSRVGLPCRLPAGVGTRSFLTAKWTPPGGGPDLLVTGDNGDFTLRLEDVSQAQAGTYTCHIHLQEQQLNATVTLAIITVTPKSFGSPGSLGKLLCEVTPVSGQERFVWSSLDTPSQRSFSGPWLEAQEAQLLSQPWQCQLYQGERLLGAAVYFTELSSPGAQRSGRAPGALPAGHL

T3: human LAG-3 ECD (antigen protein of the affinity test) (human, UniProt P18627 23-450)
T3 sequence: T2 sequence

B1: 556F6B8-6 humanized antibody (antibody, V domains shown)
VH: QVQLQESGPGLVKPSETLSLTCTVSGFSIIKYGVHWIRQPPGKGLEWIGVIWRGGITDYNAAFMSRVTISVDTSKNQFSLKLSSVTAADTAVYYCARWDGPLAMDYWGQGTTVTVSS
VL: DIVLTQSPSFLSASVGDRVTITCKASQDVGTTVAWYQQKPGKAPKLLIYWASTRHTGVPSRFSGSGSGTEFTLTISSLQPEDFATYYCQQYSSYPYTFGQGTKLEIK
B2: 556F6B8-3 humanized antibody (antibody, V domains shown)
VH: B1 VH with I29L, V71K, N76S, F78V
VL: B1 VL with V3Q
B3: 556F6B8-10 humanized antibody (antibody, V domains shown)
VH: B1 VH
VL: B1 VL with A43S
B4: 556F6B8-7 humanized antibody (antibody, V domains shown)
VH: B1 VH with I29L, V71K, N76S, F78V
VL: B1 VL
B5: 556F6B8-5 humanized antibody (antibody, V domains shown)
VH: B1 VH with F27G, I30S
VL: B1 VL
B6: 556F6B8-2 humanized antibody (antibody, V domains shown)
VH: B1 VH
VL: B1 VL with V3Q
B7: 556F6B8-12 humanized antibody (antibody, V domains shown)
VH: B1 VH with Q1R, I29L, V71K, N76S, F78V, R97K
VL: B1 VL with A43S
B8: 556F6B8-1 humanized antibody (antibody, V domains shown)
VH: B1 VH with F27G, I30S
VL: B1 VL with V3Q
B9: 556F6B8-9 humanized antibody (antibody, V domains shown)
VH: B1 VH with F27G, I30S
VL: B1 VL with A43S
B10: 556F6B8-11 humanized antibody (antibody, V domains shown)
VH: B1 VH with I29L, V71K, N76S, F78V
VL: B1 VL with A43S
B11: 556F6B8-8 humanized antibody (antibody, V domains shown)
VH: B1 VH with Q1R, I29L, V71K, N76S, F78V, R97K
VL: B1 VL
B12: 556F6B8-4 humanized antibody (antibody, V domains shown)
VH: B1 VH with Q1R, I29L, V71K, N76S, F78V, R97K
VL: B1 VL with V3Q
B13: 405B8H3 mouse-human chimeric antibody (antibody, V domains shown)
VH: QVQLQQSGAELVRPGASVTLSCKASGYTFTDYEMHWVKQTPVHGLEWIGATDPETGNSAYNQKFKGKAIMTADKSSSTAYMELRSLTSEDSAVYYCISTGWNDWGQGTSLTVSS
VL: DIKMTQSPSSMYASLGERVTITCKASQDINSYLSWFQQKPGKSPKTLIYRADRLLDGVPSRFSGSGSGQDYSLTISSLEYGDMGIYYCLQYDEFPYTFGGGTKLEIK
notes: also called mAb103-405B8H3
B14: 405B8H3-1 (D→E) hot-spot mutated humanized antibody (antibody, V domains shown)
VH: QVQLVQSGAEVKKPGASVKVSCKASGYTFTDYEMHWVRQAPGQGLEWMGATDPETGNSAYNQKFKGRVTMTRDTSTSTVYMELSSLRSEDTAVYYCISTGWNDWGQGTTVTVSS
VL: DIQMTQSPSSLSASVGDRVTITCKASQDINSYLSWFQQKPGKAPKSLIYRADRLLEGVPSRFSGSGSGTDFTLTISSLQPEDFATYYCLQYDEFPYTFGQGTKLEIK

These binders were tested against T1, human LAG-3 on cells (HEK293-hLAG-3 …) (assay: FACS, HEK293-hLAG-3, antibody 40 nM).
B1 showed a Mean fluorescence intensity of 50. Binder B2 has a Mean fluorescence intensity of 98. With B3 the Mean fluorescence intensity was 54. B4 showed a Mean fluorescence intensity of 98. B5 showed a Mean fluorescence intensity of 32. With B6 the Mean fluorescence intensity was 49. With B7 the Mean fluorescence intensity was 87. In the case of B8, the Mean fluorescence intensity is reported as 33. For B9, the Mean fluorescence intensity was 33. In the case of B10, the Mean fluorescence intensity is reported as 100. In the case of B11, the Mean fluorescence intensity is reported as 83. In the case of B12, the Mean fluorescence intensity is reported as 82.

Each binder was assayed against T1, human LAG-3 on cells (HEK293-hLAG-3 …) (assay: FACS, HEK293-hLAG-3, antibody 1.6 nM).
With B1 the Mean fluorescence intensity was 23. Work on B2 yielded a Mean fluorescence intensity of 83. Binder B3 has a Mean fluorescence intensity of 27. Work on B4 yielded a Mean fluorescence intensity of 79. B5 was tested, and the Mean fluorescence intensity was 8. In the case of B6, the Mean fluorescence intensity is reported as 23. B7 was tested, and the Mean fluorescence intensity was 70. B8 gave a Mean fluorescence intensity of 9. B9 gave a Mean fluorescence intensity of 9. With B10 the Mean fluorescence intensity was 87. With B11 the Mean fluorescence intensity was 64. With B12 the Mean fluorescence intensity was 62.

These binders were tested against T1, human LAG-3 on cells (HEK293-hLAG-3 …) (assay: FACS, HEK293-hLAG-3, antibody 0.013 nM).
For B1, the Mean fluorescence intensity was 4. Binder B2 has a Mean fluorescence intensity of 10. B3 showed a Mean fluorescence intensity of 4. Work on B4 yielded a Mean fluorescence intensity of 8. B5 gave a Mean fluorescence intensity of 4. With B6 the Mean fluorescence intensity was 4. For B7, the Mean fluorescence intensity was 8. B8 was tested, and the Mean fluorescence intensity was 4. In the case of B9, the Mean fluorescence intensity is reported as 4. B10 was tested, and the Mean fluorescence intensity was 9. B11 showed a Mean fluorescence intensity of 8. B12 was tested, and the Mean fluorescence intensity was 7.

Each binder was assayed against T1, human LAG-3 on cells (HEK293-hLAG-3 …) (assay: FACS, HEK293-hLAG-3, antibody 8 nM).
For B1, the Mean fluorescence intensity was 39. Binder B2 has a Mean fluorescence intensity of 94. B3 was tested, and the Mean fluorescence intensity was 44. B4 gave a Mean fluorescence intensity of 93. For B5, the Mean fluorescence intensity was 16. B6 gave a Mean fluorescence intensity of 37. B7 was tested, and the Mean fluorescence intensity was 83. B8 was tested, and the Mean fluorescence intensity was 19. Binder B9 has a Mean fluorescence intensity of 18. B10 was tested, and the Mean fluorescence intensity was 97. Binder B11 has a Mean fluorescence intensity of 79. Work on B12 yielded a Mean fluorescence intensity of 77.

What follows are binders tested against T2, human LAG-3 ECD (antigen protein of the …) (assay: SPR (CM5 chip), antibody captured by anti-human Fc IgG, antigen protein in flow, 1:1 model).
Description: (§1) First, anti-human Fc IgG was immobilized on the surface of the CM5 chip to 6000-10000 RU by amino coupling method, with FC1 as the reference channel. The coupling process was as follows: a freshly prepared 1:1 mixture of 50 mM NHS and 200 mM EDC was activated for 7 minutes, then injected with 10-50 ug/ml anti-human Fc IgG diluted in 10 mM sodium acetate ph5.0 buffer. The remaining activated sites were blocked with 1M ethanolamine. Then, HBS-EP+ buffer was used to dilute the antibody to be tested to 5 ug/ml (adjustable according to the capture level) and the antibodies were captured on the chip at a flow rate of 10 ul/min to obtain a response value of about 100˜300 RU. Then the antigen protein was diluted to 100 nM (the highest concentration was tentatively 100 nM), and flew through the chip surface at a flow rate of 30 ul/min. If enough signal value was obtained, the antigen-protein was diluted by several concentration gradients, and flew through the chip surface respectively. At the end of each cycle, the chip surface was regenerated with 10 mM Glycine at pH 1.5. The kinetic rate constant needed to be subtracted from the blank control, and the data was fitted with the global fit analysis method 1:1 combination model. The dissociation equilibrium rate constant (KD) was calculated according to the following formula: KD=kd/ka.
The method was the same as that in Example 5.
In the case of B13, the Kd is reported as 3.11 nM, the koff is reported as 0.000164 s⁻¹ and the kon is reported as 52800 M⁻¹ s⁻¹. With B14 the Kd was 2.03 nM, the koff was 0.000158 s⁻¹ and the kon was 77500 M⁻¹ s⁻¹.

The binders below were run against T1, human LAG-3 on cells (HEK293-hLAG-3 …) (assay: FACS, HEK293-hLAG-3, antibody 0.064 nM).
With B1 the Mean fluorescence intensity was 6. B2 gave a Mean fluorescence intensity of 21. Binder B3 has a Mean fluorescence intensity of 6. In the case of B4, the Mean fluorescence intensity is reported as 18. In the case of B5, the Mean fluorescence intensity is reported as 4. B6 showed a Mean fluorescence intensity of 5. Work on B7 yielded a Mean fluorescence intensity of 15. For B8, the Mean fluorescence intensity was 4. In the case of B9, the Mean fluorescence intensity is reported as 4. B10 gave a Mean fluorescence intensity of 20. In the case of B11, the Mean fluorescence intensity is reported as 15. Binder B12 has a Mean fluorescence intensity of 14.

What follows are binders tested against T1, human LAG-3 on cells (HEK293-hLAG-3 …) (assay: FACS, HEK293-hLAG-3, antibody 0.32 nM).
In the case of B1, the Mean fluorescence intensity is reported as 10. B2 was tested, and the Mean fluorescence intensity was 49. B3 gave a Mean fluorescence intensity of 11. In the case of B4, the Mean fluorescence intensity is reported as 44. For B5, the Mean fluorescence intensity was 5. B6 gave a Mean fluorescence intensity of 10. Work on B7 yielded a Mean fluorescence intensity of 36. B8 was tested, and the Mean fluorescence intensity was 5. B9 was tested, and the Mean fluorescence intensity was 5. In the case of B10, the Mean fluorescence intensity is reported as 51. B11 showed a Mean fluorescence intensity of 36. Work on B12 yielded a Mean fluorescence intensity of 32.

What follows are binders tested against T1, human LAG-3 on cells (HEK293-hLAG-3 …) (assay: FACS, HEK293-hLAG-3, antibody 0 nM).
In the case of B1, the Mean fluorescence intensity is reported as 4. B2 showed a Mean fluorescence intensity of 4. Binder B3 has a Mean fluorescence intensity of 4. B4 showed a Mean fluorescence intensity of 4. With B5 the Mean fluorescence intensity was 4. In the case of B6, the Mean fluorescence intensity is reported as 4. With B7 the Mean fluorescence intensity was 4. B8 gave a Mean fluorescence intensity of 4. B9 was tested, and the Mean fluorescence intensity was 4. In the case of B10, the Mean fluorescence intensity is reported as 4. Binder B11 has a Mean fluorescence intensity of 4. B12 was tested, and the Mean fluorescence intensity was 4.

The binders below were run against T3, human LAG-3 ECD (antigen protein of the …) (assay: SPR, CM5 chip, antibody captured by anti-human Fc IgG, antigen in flow, 1:1 fit).
Description: as §1
B2 showed a Kd of 3.31 nM, a koff of 0.000465 s⁻¹ and a kon of 141000 M⁻¹ s⁻¹. In the case of B4, the Kd is reported as 3.25 nM, the koff is reported as 0.000453 s⁻¹ and the kon is reported as 139000 M⁻¹ s⁻¹.
